Assay results published in the supplement of paper PMC12764529.
± gives the half width of the 95% confidence interval.

Columns and labels:
[1] = folding stability dG unfold (combined trypsin and chymotrypsin); higher = more stable
Method in brief: (§1)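 How resistant each design was to proteolysis was captured as K50, inferred by Bayesian fitting of sequencing counts. Unfolding free energy was then derived relative to a sequence-predicted unfolded-state K50 and a shared folded-state K50, per protease or combined. Digestion used trypsin and chymotrypsin at 11 threefold-diluted concentrations plus a no-protease condition, on mini-proteins under 80 residues without cysteine in a PA-tagged cDNA display construct. Designs were kept only when AlphaFold2 dimer inter-PAE was above 15.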

[2] = folding stability dG unfold from chymotrypsin proteolysis; higher = more stable
Method in brief: as §1

[3] = folding stability dG unfold from trypsin proteolysis; higher = more stable
Method in brief: as §1

Row | Sequence | folding stability dG unfold [1] | folding stability dG unfold [2] | folding stability dG unfold [3]
1 | SAGGSAPLPAREFADEIMKKSPGPVEITVVFKEPDEYYVAKITMNPNNGKPQIKVERIPPEDLKKLSAGGSA [r15_156_TrROS] | 0.467 ± 0.23 kcal/mol | 0.626 ± 0.23 kcal/mol | 0.42 ± 0.065 kcal/mol
2 | SAGGSAPNKWKTVDIEFMFPPDNLEEFVDEISKLPGIKASIEPVEYDPEGMYWMKIDITIPPGMKISAGGSA [r15_441_TrROS] | 1.64 ± 0.21 kcal/mol | 1.74 ± 0.12 kcal/mol | 1.16 ± 0.048 kcal/mol
3 | SAGGSAPPDTPLATIEFTLTPPDGSTTPTTITVPPSVVEEAAAAQKAAFEAAGWATTVTVATTTPLSAGGSA [r2_274_JUSTAS] | 0.526 ± 0.034 kcal/mol | 0.246 ± 0.1 kcal/mol | 0.676 ± 0.015 kcal/mol
4 | SAGGSAPPFYIAINPDKPKSIHIMPPGSPDMRDDDGSKVIPFRTEEEFLKLIQEIKKKGVDKIHIYSAGGSA [r15_1004_TrROS] | 0.413 ± 0.24 kcal/mol | 0.744 ± 0.24 kcal/mol | -0.0618 ± 0.18 kcal/mol
5 | SAGGSAPPIEIEIDKWERDPENGYVYATVKIKLPGKKIEIPIWMDDPPGQAENQVKMLAENIARQLSAGGSA [r15_979_TrROS] | 1.11 ± 0.13 kcal/mol | 1.39 ± 0.11 kcal/mol | 0.807 ± 0.082 kcal/mol
6 | SAGGSAPPKRRERIIQIPIKMKPGQTADEMVDNIADWIMDLLPPDMRIEIEVEYHPENGWIMVKIESAGGSA [r15_739_TrROS] | 1.63 ± 0.3 kcal/mol | 2.09 ± 0.084 kcal/mol | 1.21 ± 0.089 kcal/mol
7 | SAGGSAPPNLQIDIQINPGHGYIEVSVQIPGRHVKASAKLTEPGQLKMDIEFPGNGKEIDITIPISSAGGSA [r15_837_TrROS] | 2.37 ± 0.15 kcal/mol | 2.61 ± 0.072 kcal/mol | 2.04 ± 0.14 kcal/mol
8 | SAGGSAPPPGSTQVIVVEKRDAPPEEAAQEIADEIKEKYPNTSVEVQEEEVPPGEPVVRVTVYIPPSAGGSA [r15_916_JUSTAS] | 0.559 ± 0.48 kcal/mol | 0.945 ± 0.15 kcal/mol | 0.845 ± 0.14 kcal/mol
9 | SAGGSAPPPNTIPIRVKIEDKNGKWETITFPVKSGDDAKDFLNDNFPNVKVEYDPGAGWVTIEVPKSAGGSA [r15_313_TrROS] | -0.0942 ± 0.44 kcal/mol | 0.2 ± 0.094 kcal/mol | -0.868 ± 0.29 kcal/mol
10 | SAGGSAPRIRVHFWNPNTGQWHHIPVERLKKAIDKNPPGEELEFPIPGYPVKVQVEPDDGTIWIRMSAGGSA [r15_350_TrROS] | 1.19 ± 0.16 kcal/mol | 1.17 ± 0.25 kcal/mol | 1.01 ± 0.061 kcal/mol
11 | SAGGSAPRVVRVETVTLTPPADSTVTARLLRLETPEGPRYVLAVRDPSTPVVVARPVPEGATLLEESAGGSA [r15_75_TrMRF] | -0.237 ± 0.11 kcal/mol | -0.124 ± 0.1 kcal/mol | -0.581 ± 0.23 kcal/mol
12 | SAGGSAPVVEYEFVDPGNGRKVKIEVYPHPDGNYQMSIEVYDPGKPVEKIPFWMPPGEMPIEDLLKSAGGSA [r15_147_TrROS] | 0.565 ± 0.13 kcal/mol | 0.565 ± 0.24 kcal/mol | 0.528 ± 0.059 kcal/mol
13 | SAGGSAPWRPITITIPGSWEEIKELAKKFVNDGNIRDVEVEPVPDPGYYKVTVWVRDPNGNWYLVFSAGGSA [r15_177_TrROS] | 2.9 ± 0.2 kcal/mol | 3.204 ± 0.031 kcal/mol | 2.23 ± 0.16 kcal/mol
14 | SAGGSAPWVTLPIIIMFDSPEQAVEEVKPIFQELFGIKDVNVEEEPMPNGMVFVPIEITIPAENMKSAGGSA [r15_173_TrROS] | 1.09 ± 0.092 kcal/mol | 1.38 ± 0.07 kcal/mol | 0.547 ± 0.061 kcal/mol
15 | SAGGSARRPFNVEAWYPPGRSADNVADELASHFFGIKIDDVEVEPNPDNGYYKIEATIRIPPDWLKSAGGSA [r15_930_TrROS] | 0.33 ± 0.18 kcal/mol | 0.528 ± 0.29 kcal/mol | 0.0136 ± 0.36 kcal/mol
16 | SAGGSARVIRNPDYGMWIRLQPTDGGYTVQIEMYRPDPEDGKPKRRPMTHTIPPDDLPPEIRDLLKSAGGSA [r15_703_TrROS] | 0.573 ± 0.07 kcal/mol | 0.515 ± 0.12 kcal/mol | 0.442 ± 0.1 kcal/mol
17 | SAGGSARYYFIVIEIWQPGKPVKFIIVVPKEDPKKFESEINEMFPGYNIDIKVIPFPSPEEAEDLFSAGGSA [r15_889_TrROS] | 2.74 ± 0.17 kcal/mol | 2.97 ± 0.088 kcal/mol | 2.26 ± 0.1 kcal/mol
18 | SAGGSASDVVPIDKKITITLPGGEKYEVTEMTVLPDGTVKMKIIKKSPNGNPTEEEITLSPEELVDLSAGGS [r16_498_JUSTAS] | 2.47 ± 0.058 kcal/mol | 2.594 ± 0.021 kcal/mol | 2.26 ± 0.083 kcal/mol
19 | SAGGSASGYYTTTTVEIEPEGDTLTTVTTTTLGVPVTFDPVNNTLTLNLPPDQSLVTTTTVTEVAASAGGSA [r15_1040_JUSTAS] | 0.976 ± 0.055 kcal/mol | 0.857 ± 0.033 kcal/mol | 1.02 ± 0.04 kcal/mol
20 | SAGGSASLESEDVEEVSTSTSVVPLPDGGTATVTTTTYRHKEPGTLVTRTTTTFPGGATTTTVTLLSAGGSA [r15_188_JUSTAS] | 1.91 ± 0.025 kcal/mol | 2.04 ± 0.022 kcal/mol | 1.69 ± 0.039 kcal/mol
21 | SAGGSASLFIPVPPTDTSPVTVEITIGNSKYRATLTVDPNNPNLMTVTLTDPNGGATTTETVPLLDSAGGSA [r15_328_JUSTAS] | 1.79 ± 0.069 kcal/mol | 1.78 ± 0.031 kcal/mol | 1.8 ± 0.034 kcal/mol

Row | Sequence | folding stability dG unfold [1] | folding stability dG unfold [2] | folding stability dG unfold [3]
22 | SAGGSASMKIRVYTISLYRPDGESVRDVPIVVPENEPDVDPEALAKAIADELGLVKVEISEEIVPLSAGGSA [r15_333_JUSTAS] | 1.14 ± 0.18 kcal/mol | 1.4 ± 0.31 kcal/mol | 0.589 ± 0.097 kcal/mol
23 | SAGGSASMPLTLTFTTPTRTFTVTIPPSKVSSVTVEEKGPTITVTVEAPDSTITINITPSSVTISASAGGSA [r15_598_JUSTAS] | 3.8 ± 0.12 kcal/mol | 4.19 ± 0.13 kcal/mol | 2.98 ± 0.13 kcal/mol
24 | SAGGSASMTIVPVKSEEELEAYIKTKNPKVFLLPLPDGTELVVKVNVDDPSKIEKVSLSKPEEILLSAGGSA [r15_11_JUSTAS] | 0.622 ± 0.25 kcal/mol | 0.664 ± 0.16 kcal/mol | 0.228 ± 0.12 kcal/mol
25 | SAGGSASMTTKRPVSPELRAKVEAAAAAGDPAITVTLPVTLPDGRTVTLTVTKDPTADTFTATVVSSAGGSA [r15_700_JUSTAS] | 0.221 ± 0.22 kcal/mol | 0.367 ± 0.3 kcal/mol | 0.0823 ± 0.33 kcal/mol
26 | SAGGSASNIKTEEKEYPDGKVVVKYSSDPNITYVYYYPPGGLELVETLDSNGNVISKKLVPKGKLISAGGSA [r15_419_JUSTAS] | 0.832 ± 0.06 kcal/mol | 0.959 ± 0.097 kcal/mol | 0.607 ± 0.049 kcal/mol
27 | SAGGSASPAVSSEEEVEALVEELRKKGYEVLSVERTEIPGEDVTDYTIPIRDPSNGKLSTLTLTAGSAGGSA [r15_123_JUSTAS] | 0.585 ± 0.12 kcal/mol | 0.538 ± 0.15 kcal/mol | 0.508 ± 0.037 kcal/mol
28 | SAGGSASSMPVTLTLLLTRPDGTPLTLPFEAETLEEAIERGTALAQELIAELGDPNMKITGLEVVPSAGGSA [r15_698_JUSTAS] | 1.22 ± 0.1 kcal/mol | 1.44 ± 0.092 kcal/mol | 0.904 ± 0.067 kcal/mol
29 | SAGGSASSSLEVEVTAESPDPETGELRVTAVITTTYFDPSTGSTSTTTTTLTLTPEELAALVAALSSAGGSA [r2_357_JUSTAS] | 4.332 ± 0.043 kcal/mol | 4.35 ± 0.049 kcal/mol | 3.92 ± 0.071 kcal/mol
30 | SAGGSASTVTRTRTIPGSGLTVEITETPLPDGTYSYTVTFYAPDSALKTTPKTAAPDELPEEELLSSAGGSA [r15_147_JUSTAS] | 1.1 ± 0.06 kcal/mol | 1.48 ± 0.042 kcal/mol | 0.35 ± 0.049 kcal/mol
31 | SAGGSASVEIIFDPNKPTVTIYVPGPVDPNEPITLTLPGGPSLTITEIEVEKIGKEYVVKAKVTKLSAGGSA [r15_838_JUSTAS] | 1.8 ± 0.051 kcal/mol | 2.12 ± 0.03 kcal/mol | 1.14 ± 0.04 kcal/mol
32 | SAGGSASVEVSVEEKDGTLTVTVTVEVDGKLVTVTVTLTLPPPPPLSAEELEKAREAEKEGKTVEVSAGGSA [r15_631_TrROS_Hall] | 2.49 ± 0.11 kcal/mol | 2.77 ± 0.16 kcal/mol | 1.24 ± 0.12 kcal/mol
33 | SAGGSASVKVEETVEFLPGGVVKTTTRTFFPDGTVTTTDTVTALPPVPVYDISSPENLSPALERLASAGGSA [r15_1018_JUSTAS] | 0.909 ± 0.052 kcal/mol | 1.16 ± 0.026 kcal/mol | 0.543 ± 0.028 kcal/mol
34 | SAGGSASVTRMIQIPPGDPNMSIEEAIEKIKIYLPNGKPVTIEIDRIWPDPNRYFFMITIKDGKPVSAGGSA [r15_331_TrROS] | 1.86 ± 0.15 kcal/mol | 2.28 ± 0.13 kcal/mol | 1.21 ± 0.088 kcal/mol
35 | SAGGSATIEEIANMPAEEIAQEHGMEVKDVDIERVPNGTITVEVEYEPPDGKKHKHTFQIKIDEGQSAGGSA [r15_805_TrROS] | 0.284 ± 0.2 kcal/mol | 0.251 ± 0.11 kcal/mol | 0.089 ± 0.1 kcal/mol
36 | SAGGSATLTLPEDVVKEVFTAKVGDKEYRPVVFRSPDDEWVLVLVLRRDPNGNTSAVAALLPKDAVSAGGSA [r15_986_TrMRF] | 1.64 ± 0.13 kcal/mol | 1.8 ± 0.16 kcal/mol | 1.49 ± 0.047 kcal/mol
37 | SAGGSATSIEYESPGVVETVSFTREPDGTLTVTVTVREPNGPVLKTLPTTETLPPDAGVTASVPLPSAGGSA [r15_950_JUSTAS] | 0.529 ± 0.18 kcal/mol | 0.921 ± 0.13 kcal/mol | 0.0919 ± 0.16 kcal/mol
38 | SAGGSATVEVATEPDGTVTVTTLETDPAEPRGTVTTTTVTVTTEPTPEPFLSSSTTTTTTATAPAPSAGGSA [r15_438_JUSTAS] | -0.0573 ± 0.059 kcal/mol | -0.291 ± 0.075 kcal/mol | 0.138 ± 0.048 kcal/mol
39 | SAGGSAVILIPIPPDDPNFWEMIKDFQEEGKPVIIRNPEGEWMVFKPNGPVKPVDSPEQLLEAGITSAGGSA [r15_94_TrROS] | 1.04 ± 0.18 kcal/mol | 0.994 ± 0.16 kcal/mol | 1.03 ± 0.074 kcal/mol
40 | SAGGSAVPTVRATFRYPDGLVAELEVPVLPDGTPRVVLRVGGVEREVSLEELARLPPEFELVSVDPSAGGSA [r2_431_TrMRF] | 0.826 ± 0.072 kcal/mol | 0.996 ± 0.087 kcal/mol | 0.517 ± 0.073 kcal/mol
41 | SAGGSAVTVVTVELTSPGSTHTITIPASEVEGLSLEEIEARLKALPEVSEITLTRSELPPLNPSLASAGGSA [r2_282_JUSTAS] | 0.802 ± 0.046 kcal/mol | 0.752 ± 0.012 kcal/mol | 0.788 ± 0.042 kcal/mol
42 | SAGGSAWEFVKEIAKELQEKHPGYQVNVDVEPQRNPENDRRYIRIWIHVQDKNGEIRRTWEIMIPFSAGGSA [r15_1048_TrROS] | 3.44 ± 0.12 kcal/mol | 3.461 ± 0.018 kcal/mol | 3.22 ± 0.053 kcal/mol
